Experiments:
[1] = Non-enzymatic conversion of ADP-ribosylarginine to ornithine, HPLC and amino acid analysis; format: physicochemical
arginase = target: T1, arginase (Homo sapiens, UniProt P05089); assay: Incubation with manganese-activated arginase, products by amino acid analysis and MS; format: biochemical; conditions: manganese-activated arginase 0.7 U, pH 9.5, 10 minutes, 37° C.
T1 sequence (P05089 1-322): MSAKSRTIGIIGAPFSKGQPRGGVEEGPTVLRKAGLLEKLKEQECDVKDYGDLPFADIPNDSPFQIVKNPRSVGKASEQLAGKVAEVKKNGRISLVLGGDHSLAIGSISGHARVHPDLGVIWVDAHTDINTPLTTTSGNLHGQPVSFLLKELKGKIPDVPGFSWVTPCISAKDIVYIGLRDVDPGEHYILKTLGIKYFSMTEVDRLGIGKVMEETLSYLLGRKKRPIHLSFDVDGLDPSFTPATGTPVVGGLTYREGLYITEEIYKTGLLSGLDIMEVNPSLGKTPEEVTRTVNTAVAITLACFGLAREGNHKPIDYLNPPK
Description: Arginase, found predominantly in liver, catalyzes the hydrolysis of arginine to ornithine in the urea cycle. The enzyme has been reported to require free arginine (Jenkinson et al., Comp. Biochem. Physiol. B Biochem. Mol. Biol. 114:107-132, 1996). HNP-1 was tested as a potential substrate for arginase. HNP-1 (1.4 nmol), mono-ADP-ribosylated-HNP-1 (1 nmol), ADP-ribosylarginine (18 μM), and arginine (5 mM) were each incubated with manganese-activated arginase (0.7 U) at pH 9.5 in 200 μl for 10 minutes at 37° C.

ART1 = target: T2, ART1 (Mus musculus, UniProt Q60935); assay: Substrate test for ART1
T2 sequence (Q60935 23-290 limits assumed): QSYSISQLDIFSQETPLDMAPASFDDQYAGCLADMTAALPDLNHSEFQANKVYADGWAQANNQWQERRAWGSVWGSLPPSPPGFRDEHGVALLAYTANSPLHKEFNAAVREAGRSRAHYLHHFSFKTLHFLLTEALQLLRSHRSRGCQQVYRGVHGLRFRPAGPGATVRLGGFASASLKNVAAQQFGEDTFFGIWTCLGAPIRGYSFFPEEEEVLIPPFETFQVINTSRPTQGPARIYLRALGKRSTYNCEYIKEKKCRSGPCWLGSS

[2] = Incubation of HPLC-purified mono- and di-ADP-ribosyl-HNP-1 at pH 7 or 9, products analysed by HPLC/MS; format: physicochemical
Description: HNP-1 was incubated overnight at 30° C. with 5 mM NAD in 150 μl of 50 mM potassium phosphate, pH 7.5 and ART1. Reactions were terminated by addition of guanidine HCl to a final concentration of 6 M. Products were separated by HPLC and analyzed by mass spectrometry (MS).
HNP-1 was reduced, cleaved by trypsin, and analyzed by reverse phase chromatography-mass spectrometry as described (Paone et al., Proc. Natl. Acad. Sci. USA 99:8231-8235, 2002), except that the reverse phase column was a Zorbax 300SB-C18, 2.1×50 mm, 3.5 micron, and the mass spectrometer was an Agilent model G1969 with a time of flight detector. Mass spectra were deconvoluted with Agilent software MassHunter version 2, and the fraction of each species was calculated from the areas of the deconvoluted peaks.
To verify that ART1 (or an enzymatic contaminant) was not required for ornithine formation, HPLC-purified mono- and di-modified HNP-1 were incubated for 24 hours at 37° C. at pH 7 or 9 and the reaction products were analyzed by HPLC (FIG. 4, Table 1). Di-ADP-ribosylated-HNP-1 degraded to mono-ADP-ribosylated-HNP-1-ornithine of 3940 molecular mass at pH 7 and the amount was greater at pH 9 (FIG. 4A-D). About 50% of di-ADP-ribosylated-HNP-1 degraded to mono-ADP-ribosylated-HNP-1-ornithine at pH 9, with ADP-ribosylated arginine 14 and ornithine at position 24 or ADP-ribosylated arginine 24 and ornithine at position 14.

NC(=NCCC[C@H](N)C(=O)O)N[C@H]1O[C@H](COP(=O)(O)OP(=O)(O)OC[C@H]2O[C@@H](n3cnc4c(N)ncnc43)[C@H](O)[C@@H]2O)[C@@H](O)[C@H]1O [ADP-ribosylarginine]
product of incubation in acid ([1]; 6N HCl, 37° C., 24 hours): Arginine was cleaved
amount of ornithine generated ([1]; incubation at pH 7 or pH 8): less than at pH 9
maximal amount of ornithine, of initial ADP-ribosylarginine ([1]; pH 9, 24 hours, 37° C., amino acid analysis without prior acid hydrolysis): 21%
ornithine formation by arginase (substrate or not) (arginase): ornithine only in the reaction that contained free arginine

N=C(N)NCCCCN [agmatine]
substrate for ART1 (ART1): served as substrates

N=C(N)NCCC[C@H](N)C(=O)O [arginine]
substrate for ART1 (ART1): served as substrates
ornithine formation after incubation with free ADP-ribose ([1]; 24 hours, 37° C., 20 mM potassium phosphate pH 9): No ornithine was identified
ornithine formation by arginase (substrate or not) (arginase): ornithine only in the reaction that contained free arginine

NCCC[C@H](N)C(=O)O [ornithine, Ornithine]
substrate for ART1 (ART1): did not

ADPR-HNP: HNP-1 ADP-ribosylated on arginine 14
percent of species ADPR-HNP at the end of the incubation ([2]; pH 7, time 0 h): 100%
percent of species ADPR-HNP-Orn at the end of the incubation ([2]; pH 7, time 0 h): 0%
percent of species Di-ADPR-HNP at the end of the incubation ([2]; pH 7, time 0 h): 0%
percent of species Di-Orn-HNP at the end of the incubation ([2]; pH 7, time 0 h): 0%
percent of species HNP at the end of the incubation ([2]; pH 7, time 0 h): 0%
percent of species HNP-Orn at the end of the incubation ([2]; pH 7, time 0 h): 0%
percent of species ADPR-HNP at the end of the incubation ([2]; pH 7, time 24 h): 82 ± 13%
percent of species ADPR-HNP-Orn at the end of the incubation ([2]; pH 7, time 24 h): 0%
percent of species Di-ADPR-HNP at the end of the incubation ([2]; pH 7, time 24 h): 0%
percent of species Di-Orn-HNP at the end of the incubation ([2]; pH 7, time 24 h): 0%
percent of species HNP at the end of the incubation ([2]; pH 7, time 24 h): 0%
percent of species HNP-Orn at the end of the incubation ([2]; pH 7, time 24 h): 18 ± 13%
percent of species ADPR-HNP at the end of the incubation ([2]; pH 9, time 0 h): 100%
percent of species ADPR-HNP-Orn at the end of the incubation ([2]; pH 9, time 0 h): 0%
percent of species Di-ADPR-HNP at the end of the incubation ([2]; pH 9, time 0 h): 0%
percent of species Di-Orn-HNP at the end of the incubation ([2]; pH 9, time 0 h): 0%
percent of species HNP at the end of the incubation ([2]; pH 9, time 0 h): 0%
percent of species HNP-Orn at the end of the incubation ([2]; pH 9, time 0 h): 0%
percent of species ADPR-HNP at the end of the incubation ([2]; pH 9, time 24 h): 61 ± 9%
percent of species ADPR-HNP-Orn at the end of the incubation ([2]; pH 9, time 24 h): 0%
percent of species Di-ADPR-HNP at the end of the incubation ([2]; pH 9, time 24 h): 0%
percent of species Di-Orn-HNP at the end of the incubation ([2]; pH 9, time 24 h): 0%
percent of species HNP at the end of the incubation ([2]; pH 9, time 24 h): 0%
percent of species HNP-Orn at the end of the incubation ([2]; pH 9, time 24 h): 39 ± 9%
ornithine formation by arginase (substrate or not) (arginase): ornithine only in the reaction that contained free arginine

From patent US8828380B2, “Method for the treatment of pulmonary disease and method of producing proteins of use therein” (The United States of America, as represented by the …, priority 2009, dated 2014)
